Laboratory results reported in PMC9674588, “Molecular recognition of a membrane-anchored HIV-1 pan-neutralizing epitope” (Communications Biology, 2022).
Entries after “also recorded” stand apart in the source; their conditions may differ. Where no end group is shown, it is not given here.

How the values were obtained:
Fab 10E8 [1] = assay: Binding of KK114-Fab 10E8 to single GUVs containing the peptides reconstituted (confocal microscopy); conditions: for Fab 10E8 binding vs TMD length and bilayer thickness (in words): GUVs of diC14:1PC, POPC, diC22:1PC
Protocol: To that end, we quantified antibody binding to single vesicles by confocal microscopy of Giant Unilamellar Vesicles (GUVs) incubated with fluorescently labeled Fab 10E8[36],[47].
Thus, to establish the influence of the bilayer thickness on the accessibility to the 10E8 epitope, we selected lipid bilayers made of diC14:1PC and diC22:1PC, which are respectively thinner and thicker than those made of POPC (C16:0-C18:1PC)[52],[53].
To prepare lipid bilayers containing reconstituted peptide, lipids and MPER-TMD-derived peptides were mixed in organic solvent prior to the production of the liposomes. Briefly, POPC dissolved in chloroform:methanol 1:2 (vol:vol) was mixed with peptide dissolved in HFIP at the desired peptide-to-lipid molar ratio. The mixture was dried under a N2 stream and traces of organic solvents were removed by 1 h vacuum pumping. Subsequently, the dried lipid films were subjected to 2 h of gentle hydration with H2O using a N2 gas bubbler to facilitate further dispersion of the dried lipid-peptide film in PBS aqueous buffer. Next, the multilamellar vesicles were bath sonicated (1 h, 55 °C) and subjected to 15 freeze and thaw cycles to obtain unilamellar vesicles.
For binding experiments, NBD-labeled GUVs were produced following the electro-formation method as previously described[47]. In brief, a total of 2 mM of lipid was dissolved in 200 μL CHCl3:CH3OH with the fluorescent probe NBD-PE (0.5%). When required, peptide dissolved in 10% (v/v) HFIP was included in the organic phase at 1:250 peptide-to-lipid molar ratio. The GUVs were added to a bovine serum albumin (BSA)-blocked microscope chamber that already included 250 nM of 10E8-based Fabs conjugated with the KK114 probe at residue C216HC, and were incubated for 15 min prior to imaging. […] Confocal microscopy images were acquired on an inverted confocal fluorescence microscope (Nikon Eclipse TE-2000, Nikon, Nikon Instruments, Tokyo, Japan). NBD-stained GUVs and Fabs conjugated with the KK114 probe were excited at 476 nm and 637 nm, respectively. […] The band pass filters used were 515/30 and Long Pass 650 nm. […]

[2] = Infrared spectroscopy (amide I) of peptides reconstituted in lipid bilayers; format: physicochemical; conditions: for IR amide-I band area, 1630 cm^−1 (solvated helices) / IR amide-I band area, 1642 cm^−1 (helix-helix interactions/disordered) / IR amide-I band area, 1655 cm^−1 (α-helix) / IR amide-I band area, 1670 cm^−1 (turns): monounsaturated PC, D2O PBS
Excerpt: In addition, the lipid bilayer distance covered by the hydrocarbon acyl chains strongly conditions the favorable interactions between TMDs and lipids, so that a mismatch between this distance and the TMD length can give rise to alterations in the structure and function of the integral membrane proteins. Therefore, to rule out DC effects on the conformations adopted by the reconstituted MPER-TMD peptides, we performed IR experiments and varied systematically this parameter utilizing a complete series of monounsaturated PCs (i.e., diC14:1PC, diC16:1PC, diC18:1PC, diC20:1PC and diC22:1PC)[55].
Infrared spectra were recorded in a Bruker Tensor 27 spectrometer equipped with a mercury-cadmium-telluride detector using a Peltier-based temperature controller (TempCon, BioTools Inc., Wauconda, IL) with calcium fluoride cells (BioCell, BioTools Inc., Wauconda, IL). Lipid vesicles with the peptides reconstituted were lyophilized and subsequently prepared at 3 mg/mL in D2O buffer (PBS). A 25 μL sample aliquot was deposited on a cell that was sealed with a second cell. Reference windows without peptide were prepared similarly. Typically, 1000 scans were collected for each background and sample, and the spectra were obtained with a nominal resolution of 2 cm^−1. Data treatment and band decomposition of the original amide I have been described elsewhere.

Fab 10E8 [3] = assay: AFM single-molecule force spectroscopy of Fab 10E8-peptide unbinding in POPC SPBs; format: binding; conditions: for MPRF (most probable rupture force), mean: 1:50
Protocol: SPBs were produced by the vesicle adsorption method and their topography analyzed using a Nanowizard III AFM (JPK Instruments) under contact mode. Briefly, approximately 30 µl of the vesicle suspensions described above were deposited onto freshy cleaved mica disks (area 15 mm^2) preincubated with 30 µl of 150 mM KCl, 10 mM Tris, pH = 7.4 (measurement buffer) and incubated for 30 min at room temperature, leading to the formation of SPBs. The samples were carefully rinsed with measurement buffer before the AFM experiment and always kept under aqueous environment. BL-AC40-C2 Si3N4 cantilevers (Olympus, Japan) with a nominal spring constant of 0.09 N/m were used for bilayer imaging with 0.5 nN of force applied.
For single molecule force spectroscopy, MLCT-BIO probes (Bruker, Santa Barbara, CA USA) were functionalized with Fab 10E8 using well established protocols. To that end, cantilevers were first rinsed with acetone and water, exposed to UV-ozone and coated with 3-Aminopropyldimethylethoxysilane (APDMES). They were then incubated with glutaraldehyde and finally with Fab. Finally, to passivate possible unreacted aldehyde moieties, cantilevers were incubated in 0.1% Bovine Serum Albumin (BSA) for 1 h at room temperature and rinsed in measurement buffer prior to use. Force maps were recorded using a maximum applied force of 0.2 nN, a varying contact time of 0.5, 1, 2 and 5 s and varying retraction speeds of 0.1 µm/s, 2 µm/s and 10 µm/s. Data were analyzed with the data processing software from JPK Instruments (Berlin, Germany).
To determine the MPRF at a given loading rate the frequency histograms of the measured forces were fitted to a Gaussian distribution (Eq. 1) and its maximum calculated.1 y=Amplitude⋅exp−0.5⋅x−Mean/SD^2
MPRF is a function of the loading rate as defined by (Eq. 2):2 MPRF=kβ⋅T/χβlnrf⋅χβ/koff⋅kβ⋅T where kβ is Boltzmann constant, T is the temperature, koff is the natural dissociation rate at zero force and rf is the loading rate.
These parameters can be actually obtained from the slope of the linear fit of the data, and by linearly extrapolating the experimental data to zero external force, respectively.

[4] = GUV permeabilization (soluble KK114 entry); conditions: POPC GUVs with peptide reconstituted
Protocol: When required, peptide dissolved in 10% (v/v) HFIP was included in the organic phase at 1:250 peptide-to-lipid molar ratio. […] For GUV permeabilization assays, GUVs were added to a BSA-blocked microscope chamber that already included the unconjugated and soluble KK114 dye, and were incubated for 15 min prior to imaging. Confocal microscopy images were acquired on an inverted confocal fluorescence microscope (Nikon Eclipse TE-2000, Nikon, Nikon Instruments, Tokyo, Japan). […] The band pass filters used were 515/30 and Long Pass 650 nm. The objective used was a 63X oleo immersion with a numerical aperture (NA) of 1.2.

[5] = Breakthrough force of POPC SPBs (FS-AFM); conditions: peptide-to-lipid 1:50
Excerpt: Permeabilization of single vesicles correlated with effects of the reconstituted peptides on the nanomechanical stability of SPBs analyzed by FS-AFM[57] (Fig. 6b). In this approach, we measured the breakthrough forces of the different SPBs to quantitatively determine the nanomechanical resistance to membrane rupture. By comparing the AFM tip indentations through the different bilayer systems at the same approach speed, we measured the discontinuity in the approach curve which corresponds to the breakthrough force; a parameter widely used to assign the mechanical stability of SPBs[57]. […] This increase was even larger than that observed in an SPB containing 50 mol % cholesterol, which was added as a stiffening-control sample to the analysis. […]
SPBs were produced by the vesicle adsorption method and their topography analyzed using a Nanowizard III AFM (JPK Instruments) under contact mode. […]
Force spectroscopy data for SPB breakthrough measurements were collected using SNL10 Si3N4 cantilever (Bruker, Santa Barbara, CA, USA) with a nominal spring constant of 0.35 N/m, at a speed of 1 µm/s and applying 10 nN of maximum force. Discontinuities in the force versus separation approach curve were determined for each of the indentation curves as reproducible jumps within the extended traces using JPK data processing software.

[6] = Vesicle flotation (incorporation of reconstituted peptides into membranes); format: physicochemical; conditions: POPC, 1:50 mol:mol, flotation in sucrose gradient, Western blot
Excerpt: Supplementary Figure 4: Incorporation of reconstituted peptides into membranes. (a) Diagram illustrating the Liposome flotation method. Liposome-peptide co mplex es were subjected to ultracentrifugation in a sucrose gradi ent after the reconstitution process. (b) The pres ence of th e peptides in the floated and non- floated fractions o f the gradient and in the original sample (input) as reveal ed b y Western Blot anal ysis aft er Tris -Tricine SDS-PAGE separation. Line plots below […]
liposomes. The peptide-to-lipid ratio was 1:50 (mol:mol).
(1 picture or pasted object on this page, not shown here)

[7] = hydrocarbon thickness DC 22.8 Å
[8] = reconstituted in POPC bilayers, 1:50

Substance | Fab 10E8 binding vs TMD length and bilayer thickness (in words) (Fab 10E8 [1]) | IR amide-I band area, 1630 cm^−1 (solvated helices) ([2]; DC 25.6 Å) [%] | IR amide-I band area, 1642 cm^−1 (helix-helix interactions/disordered) ([2]; DC 25.6 Å) [%] | IR amide-I band area, 1655 cm^−1 (α-helix) ([2]; DC 25.6 Å) [%] | IR amide-I band area, 1670 cm^−1 (turns) ([2]; DC 25.6 Å) [%] | IR amide-I band area, 1630 cm^−1 (solvated helices) ([2]; DC 29 Å) [%] | IR amide-I band area, 1642 cm^−1 (helix-helix interactions/disordered) ([2]; DC 29 Å) [%] | IR amide-I band area, 1655 cm^−1 (α-helix) ([2]; DC 29 Å) [%] | IR amide-I band area, 1670 cm^−1 (turns) ([2]; DC 29 Å) [%] | IR amide-I band area, 1630 cm^−1 (solvated helices) ([2]; DC 32 Å) [%] | IR amide-I band area, 1642 cm^−1 (helix-helix interactions/disordered) ([2]; DC 32 Å) [%] | IR amide-I band area, 1655 cm^−1 (α-helix) ([2]; DC 32 Å) [%] | IR amide-I band area, 1670 cm^−1 (turns) ([2]; DC 32 Å) [%] | IR amide-I band area, 1630 cm^−1 (solvated helices) ([2]; DC 35 Å) [%] | IR amide-I band area, 1642 cm^−1 (helix-helix interactions/disordered) ([2]; DC 35 Å) [%] | IR amide-I band area, 1655 cm^−1 (α-helix) ([2]; DC 35 Å) [%] | IR amide-I band area, 1670 cm^−1 (turns) ([2]; DC 35 Å) [%] | IR amide-I band area, 1630 cm^−1 (solvated helices) [2, 7] [%] | IR amide-I band area, 1642 cm^−1 (helix-helix interactions/disordered) [2, 7] [%] | IR amide-I band area, 1655 cm^−1 (α-helix) [2, 7] [%] | further results
C-MPER-TMD700: Env residues 671–700, HXB2 numbering, containing a minimal TMD anchor and Lys-tags added at both ends (NWFNITNWLWYIKLFIMIVGGLVGLRIVFA; also: Lys-tags added at both ends, length not given here; UniProt P04578 671-700, looked up, fragment) | C-MPER-TMDLLA-709 > C-MPER-TMD709 > C-MPER-TMD700 | 8.1 | 31.2 | 52.3 | 7 | 8.4 | 39.3 | 48.1 | 2.6 | 6.4 | 39.8 | 49.8 | 3.9 | 3.1 | 52 | 39.7 | 1 | 5.8 | 35.1 | 51.8 | IR amide-I band area, 1670 cm^−1 (turns) [2, 7]: 7.4%
C-MPER-TMD709: Env residues 671–709, HXB2 numbering, which included the nominal Env TMD sequence (Env residues 684–709) (NWFNITNWLWYIKLFIMIVGGLVGLRIVFAVLSIVNRVR; UniProt P04578 671-709, looked up, fragment) | C-MPER-TMDLLA-709 > C-MPER-TMD709 > C-MPER-TMD700 | 18.9 | 31 | 41.6 | 4.9 | 14 | 33.4 | 45.2 | 4.6 | 16 | 34.8 | 43.2 | 3.4 | 15.8 | 40 | 38.5 | 2.9 | 20 | 34.5 | 33.8 | Fab 10E8 binding to GUVs (in words) (Fab 10E8 [1]; POPC GUVs, peptide-to-lipid 1:250, 250 nM Fab): appeared to bind more efficiently to C-MPER-TMD709-containing vesicles than to the N/C-MPER683-containing ones; koff ratio among peptides (Fab 10E8 [3]; N/C-MPER683 vs C-MPER-TMD709, POPC SPBs): ≈ 22; attachment (binding) frequency (in words) (Fab 10E8 [3]; POPC SPBs, vs N/C-MPER683, contact time series, retraction 2 μm s^−1): attachment appeared to occur at higher frequency; MPRF (in words) (Fab 10E8 [3]; POPC SPBs, contact time 0.5 s, loading rate 41 nN s^−1, vs N/C-MPER683): clearly shifted to higher values; t0.5(N/C-MPER)/t0.5(C-MPER-TMD) (Fab 10E8 [3]; interaction time for half maximal probability of binding, POPC SPBs): ≈ 1.4; MPRF (most probable rupture force), mean (Fab 10E8 [3]; ln (loading rate pN/s) 3.62033, POPC SPBs): 33.4766 pN; MPRF (most probable rupture force), mean (Fab 10E8 [3]; ln (loading rate pN/s) 4.62006, POPC SPBs): 53.13 pN; MPRF (most probable rupture force), mean (Fab 10E8 [3]; ln (loading rate pN/s) 6.62009, POPC SPBs): 93.3506 pN; MPRF (most probable rupture force), mean (Fab 10E8 [3]; ln (loading rate pN/s) 7.62012, POPC SPBs): 73.97 pN; MPRF (most probable rupture force), mean (Fab 10E8 [3]; ln (loading rate pN/s) 8.62012, POPC SPBs): 81.12 pN; MPRF (most probable rupture force), mean (Fab 10E8 [3]; ln (loading rate pN/s) 9.62012, POPC SPBs): 90.66 pN; MPRF (most probable rupture force), mean (Fab 10E8 [3]; ln (loading rate pN/s) 10.6201, POPC SPBs): 135 pN; permeabilization (in words) [4]: viewed as empty spheres; also recorded: essentially impermeable; breakthrough force (in words) [5]: increased the values of the forces at which rupture was observed; incorporation into membranes (in words) [6]: total incorporation; IR amide-I band area, 1670 cm^−1 (turns) [2, 7]: 6.4%; IR amide-I absorption maximum [2, 8]: around 1650 cm^−1; IR amide-I band component [2, 8]: 1642 cm⁻¹
